The values below come from paper PMC4503980 (Scientific Reports, 2015).

The chains are these.
B1: nNOS-PDZ: recombinant extended PDZ domain of nNOS (12–130 human for FP; 12–134 Mus musculus for ITC/NMR) (protein, UniProt P29475 12-130, looked up, fragment)
chain: QPNVISVRLFKRKVGGLGFLVKERVSKPPVIISDLIRGGAAEQSGLIQAGDIILAVNGRPLVDLSYDSALEVLRGIASETHVVLILRGPEGFTTHLETTFTGDGTPKTIRVTQPLGPPT
B2: PSD-95-PDZ2 (157-249, human) (domain or fragment, UniProt P78352 157-249, looked up)
chain: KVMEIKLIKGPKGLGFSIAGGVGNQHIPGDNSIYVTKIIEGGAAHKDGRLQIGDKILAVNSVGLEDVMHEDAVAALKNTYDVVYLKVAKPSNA
notes: PSD-95, human, PDZ2 domain, residues 157-249; Construct of the ITC and NMR experiments; 15N-labelled in some NMR samples
B3: extended Mus musculus nNOS-PDZ (residues 12-134) (domain or fragment, UniProt Q9Z0J4 12-134, looked up)
chain: QPNVISVRLFKRKVGGLGFLVKERVSKPPVIISDLIRGGAAEQSGLIQAGDIILAVNDRPLVDLSYDSALEVLRGIASETHVVLILRGPEGFTTHLETTFTGDGTPKTIRVTQPLGTPTKAVD
notes: neuronal nitric oxide synthase (nNOS), Mus musculus, extended PDZ domain, residues 12-134, Uniprot Q9JJ30; Construct of the ITC and NMR experiments; 15N-labelled in some NMR samples; also called extended nNOS-PDZ; source: sub-cloned into pETM11, expressed and purified following a similar protocol to that of PSD-95-PDZ2

Ends that are not written are not given here. Peptide text beside a SMILES is read from it. * marks the point of attachment. X1 = CCN1C(=CC=CC=CC2=[N+](CCCCCC(=O)NCCN3C(=O)CC(*)C3=O)c3ccc(S(=O)(=O)[O-])cc3C2(C)C)C(C)(C)c2cc(S(=O)(=O)O)ccc21

Assay [1] deals with T1, nNOS-PDZ (Homo sapiens, UniProt P29475).
T1 construct: nNOS-PDZ (12–130, human); made in house; host or cells: E. coli
As to the kind of experiment: FP saturation and inhibition assay, Cy5-Nav1.4 probe / nNOS-PDZ. In kind it is binding. As to the method: Fluorescent probes were made by attaching fluorophores (Cy5) to C-terminal 10- or 11-mer (C10 or C11) peptide ligands representing canonical and natural occurring protein partners (Supplementary Table S1). […] (Fig. 2).
(b) Cy5-GluN2B as probe (50 nM), [PDZ2] = 6 μM. (c) Cy5-CRIPT as probe (50 nM), [PDZ3] = 5 μM. […] Error bars indicate SEM based on three individual measurements.
nNOS-PDZ (12–130, human) and α-Syntrophin-PDZ (82–200, human), both comprising an N-terminal His-tag/FXa-site sequence ([…]), were likewise expressed in E. coli and purified by HisTrap chromatography followed by gel-filtration as described in details previously. To make the TAMRA-labelled nNOS-PDZ, mutant nNOS-PDZ (V36C) protein was generated by standard site-directed mutagenesis and characterized as described previously. Here, dithiothreitol was added to the pooled protein sample after HisTrap purification to a final concentration of 10 mM to eliminate unwanted disulfide bonds, and a final gel-filtration (50 mM NaPi buffer pH 7.5) was performed to remove impurities and salts. Next, purified nNOS-PDZ (V36C) was desalted by dialysis into 50 mM (NH4)2CO3 buffer (SnakeSkin dialysis tubing 3.5 MWCO, Pierce, Rockford, IL, USA) and subsequently lyophilized. nNOS-PDZ (V36C) was redissolved in 500 μL buffer (6 M GnHCl, 200 mM NaPi) and solid TAMRA-maleimide (5-tetramethylrhodamine-C2-maleimide; Anaspec, Fremont, CA, USA) was added in excess (cf. ESI-LC-MS). The coupling reaction was incubated at room temperature for 16 hours and TAMRA-labelled nNOS-PDZ was purified by preparative HPLC, and refolded in assay buffer. Functional validation was performed by FP[19], and all final proteins were characterized for purity and identity by SDS-PAGE and ESI-LC-MS.
Incubation time was 10–15 minutes (room temperature), and the assay was performed in a 1 × TBS buffer (150 mM NaCl, 10 mM Tris, pH 7.4) using black flat-bottom 384-well plates (Corning Life Sciences, NY) and a Safire2 plate-reader (Tecan, Männedorf, Switzerland). G-factor was adjusted so that probe alone (i.e. without protein interacting-partner) would give an FP value of 20 mP. This background value was subsequently subtracted from the raw data before plotting and analyzing the data. TAMRA- and Cy5-probes were measured at excitation/emission values of 530/585 nm (bandwidth = 20 nm) and 635/670 nm (bandwidth = 15 nm), respectively. […]
FP values were fitted to the general equation: Y = Bottom + (Top–Bottom)/[1 + (10^(X-logIC50)*HillSlope)], where X is the logarithmic value of peptide/compound concentration, and Y is the experimental FP values. Competitive inhibition constants, Ki values, were calculated from the IC50 values to quantify affinities between test substance and protein[42]. […]

Assay [2] deals with PDZ1-2 (61-249) from PSD-95 (human). Kind of assay: fluorescence polarisation; inhibition of TAMRA-Cnskr2 (5 nM)/PDZ2 (1.5 μM) or PDZ1-2 (1 μM) by increasing unlabelled nNOS-PDZ or GluN2B-C5; 1 x TBS pH 7.4; Ki calculated from IC50.
For assay [3], the target named is PDZ2 (155-249) from PSD-95 (human). The description is as above.
In assay [4] the target is TAMRA-labelled nNOS-PDZ (V36C) (human) (UniProt P29475). As to the kind of experiment: fluorescence polarisation; saturation binding: increasing PDZ domain protein (typically 0-150 μM) added to a fixed low concentration of TAMRA- or Cy5-labelled probe (5 or 50 nM); 1 x TBS (150 mM NaCl, 10 mM Tris, pH 7.4), 10-15 min, room temperature.
Assay [5] concerns the target TAMRA-Cnskr2. The description is as above.
Assay [6] has as its target Cy5-Nav1.4. The description is as above.
Assay [7] addresses T2, PSD-95-PDZ2 (Homo sapiens, UniProt P78352). Kind of assay: FP saturation and inhibition, TAMRA-Cnskr2 / PSD-95-PDZ2. It counts as binding. More on the design: PDZ2 (155-249); made in house; host or cells: E. coli BL21-DE3 pLysS. The settings on record: TAMRA-Cnskr2 5 nM, PDZ2 […]. From the text: (§1) First we tested a series of 23 fluorescent-labelled C-terminal peptide ligands (Supplementary Table S1) derived from PDZ-interacting proteins in order to find a probe with good activity towards the PSD-95 PDZ domains and no or little activity against nNOS-PDZ (Supplementary Fig. S1). The Cnskr2 probe fulfilled these selectivity criteria and was used to generate saturation curves with PDZ2 and PDZ1-2 of PSD-95 (Fig. 4a). […] Next, fixed concentrations of TAMRA-Cnskr2, PSD-95-PDZ2/1-2, and nNOS-PDZ were applied, corresponding to the conditions at IC50 of the nNOS-PDZ inhibition curve (Fig. 4b) where sensitivity of the assay is greatest. […] Here, we used the Sapk3-peptide as it has the desired high affinity to α1-Syntrophin-PDZ and low affinity to nNOS-PDZ (Supplementary Fig. S1).
(§2) The minor increases in mP at high concentrations, 260-2900 μM, were due to fluorescence artefacts.
(§3) Incubation time was 10–15 minutes (room temperature), and the assay was performed in a 1 × TBS buffer (150 mM NaCl, 10 mM Tris, pH 7.4) using black flat-bottom 384-well plates (Corning Life Sciences, NY) and a Safire2 plate-reader (Tecan, Männedorf, Switzerland). […] TAMRA- and Cy5-probes were measured at excitation/emission values of 530/585 nm (bandwidth = 20 nm) and 635/670 nm (bandwidth = 15 nm), respectively. […]

The target of assay [8] is T2, PSD-95-PDZ2. As to the kind of experiment: ITC titration into PSD-95-PDZ2. In kind it is binding. More on the design: PSD-95-PDZ2 (157–249, human); made in house. From the text: Unlike the FP experiments above, which rely on inhibition of interaction partners, the ITC method is a direct measure of binding, regardless of where it takes place on the protein.
Figure 5 ITC curves. Plots showing titrations into PDZ domains fitted to a one-site model.
For isothermal titration calorimetry (ITC) and NMR, PSD-95-PDZ2 (157–249, human) was expressed and purified as described previously. The sequence for the extended Mus musculus nNOS-PDZ (residues 12–134, Uniprot Q9JJ30) was sub-cloned into a pETM11 vector using cloning sites Nco1 and Kpn1, and the protein was expressed and purified following a similar protocol to that used for the production of PSD-95-PDZ2.
All ITC experiments were carried out at 25 °C on an iTC200 Microcalorimeter (GE Healthcare) with a 200 μL cell capacity and 40 μL syringe volume. The buffer used for all solutions was 20 mM phosphate buffer at pH 6.3; each experiment consisted of an initial injection of 0.5 μL, followed by fifteen 2.39 μL injections before a final injection of 1.89 μL. […] In both cases no heat exchange was detected, confirming that there was appropriate match of buffer conditions with no indication of dilution effects. […] For the nNOS-PDZ/PSD-95-PDZ2 interaction, 100 μM PDZ2 in the cell was titrated with 750 μM nNOS-PDZ. […] All data was analysed using the Origin®7 software programme.
(Isothermal titration calorimetry measures the heat released or taken up as one component is titrated into another.)

The target in assay [9] is T3, PSD-95-PDZ1-2 (Homo sapiens, UniProt P78352).
T3 construct: PDZ1-2 (61-249); made in house; host or cells: E. coli BL21-DE3 pLysS
Kind of assay: FP saturation and inhibition, TAMRA-Cnskr2 / PSD-95-PDZ1-2. In kind it is binding. The settings on record: TAMRA-Cnskr2 5 nM, PDZ1-2 1 μM.
Source text: as §1, §2, §3

In assay [10] the target is PDZ1 (61-151) from PSD-95 (human). As to the kind of experiment: fluorescence polarisation; 'direct' FP inhibition assay: TAMRA-nNOS (5 nM) with fixed PDZ1 (7.5 μM), PDZ2 (2.5 μM) or PDZ1-2 (0.3 μM); increasing control compound; 1 x TBS pH 7.4. For orientation: In fluorescence polarisation assays a small probe gives low polarisation when free and higher when bound to something large.

In assay [11] the target is PDZ2 (155-249) from PSD-95 (human). The assay is described as above.
Assay [12] deals with B3. As to the kind of experiment: ITC; 25 °C, 20 mM phosphate buffer pH 6.3; 100 μM PDZ2 in the cell titrated with 750 μM nNOS-PDZ; one-site model. The settings on record: both partners purified.
Assay [13] addresses B2. The description is as above. The settings on record: both partners purified.
[14] abbreviates: ITC, nNOS-PDZ titrated into PSD-95-PDZ2.

In turn, `CCN1C(=CC=CC=CC2=[N+](CCCCCC(=O)NCCN3C(=O)CC(SC[C@H](N)C(=O)N[C@@H](CC(N)=O)C(=O)N[C@@H](CC(N)=O)C(=O)NCC(=O)N[C@H](C(=O)N[C@@H](CCCNC(=N)N)C(=O)N4CCC[C@H]4C(=O)NCC(=O)N[C@H](C(=O)N[C@@H](CCCCN)C(=O)N[C@@H](CCC(=O)O)C(=O)N[C@@H](CO)C(=O)N[C@@H](CC(C)C)C(=O)N[C@H](C(=O)O)C(C)C)C(C)C)C(C)C)C3=O)c3ccc(S(=O)(=O)[O-])cc3C2(C)C)C(C)(C)c2cc(S(=O)(=O)O)ccc21` (stereo partly drawn) [Cy5-Nav1.4] (H-C(X1)NNGVRPGVKESLV-OH; N-terminus assumed) came in with a Kd in [1] (saturation curve, probe 50 nM) of 20000 ± 1000 nM.

Take GluN2B-C5 (peptide): the figures for the Ki in assay [2] and in assay [3] were 4800 nM and 1600 nM, respectively.

NNGVRPGVKESLV [Nav1.4-C10] registered an inhibition constant Ki in assay [1] (Cy5-Nav1.4 probe 50 nM / nNOS-PDZ) of 45000 ± 4000 nM.

The molecule “PDZ1 (61-151) from PSD-95 (domain or fragment)” yielded a Kd in assay [4] of 2400 nM.

Consider “PDZ1-2 (61-249) from PSD-95 (domain or fragment)”, for which the Kd turned out to be 150 nM in [4] and 1100 nM in [5].

In the case of “PDZ2 (155-249) from PSD-95 (domain or fragment)”, the results for the Kd in [4] and in [5] were 1100 nM and 380 nM, respectively.

Take “nNOS-PDZ (12-130, human) (from UniProt P29475 12-130) (domain or fragment)”: the Kd is above 190000 nM in [5] and 20000 nM in assay [6]. Moreover, the Ki in assay [2] is 810 nM; in assay [3], 88 nM.

In the case of B1, in assay [7], the Ki is 88 ± 14 nM. In assay [8] (100 μM PDZ2 in cell titrated with 750 μM nNOS-PDZ, pH 6.3, 25 °C), the Kd was around 670 nM. For the same molecule, in assay [8] (setting [14]), the “N (stoichiometry ratio)” value is listed as 1.0, the “T∆S” value is on record as around 6.7 kcal/mol and the “∆H” value is around -1.7 kcal/mol. Further, the Ki in assay [9] is 810 ± 23 nM.

Take {N‑cyclohexylethyl}-ETAV [N-cyclohexylethyl-ETAV]: the Ki in assay [10] was found to be 3900 nM; in assay [11], 2000 nM.

In [12], B2 showed a Kd of around 670 nM.

For B3, in assay [13], the dH is around -1.7 kcal/mol and the “stoichiometry N” value is 1.

The term Kd denotes the equilibrium constant for the complex coming apart. A low value points to a tighter complex. The Ki is the dissociation constant of the complex between target and ligand, obtained from inhibition or displacement. The term stoichiometry N denotes a count of units in the complex or per binding partner.
